Experimental data from article PMC3662668, “Structural and Functional Basis for Inhibition of Erythrocyte Invasion by Antibodies that Target Plasmodium falciparum EBA-175” (PLoS Pathogens, 2013).

Biological target: T1, wildtype PfEBA-175 RII expressed on the surface of HEK293T cells (Plasmodium falciparum, strain not …, UniProt Q8IBE8)
T1 construct: PfEBA-175 of P. falciparum, region II; The pRE4 vector supplies the signal and membrane anchor for surface display (surmise); also called wildtype RII; source: HEK293T, transfected (pRE4 vector), on the cell surface; not shown: GFP, C-terminal, kept
Assay: immunostaining of cells or tissue; DBL proteins on the surface of transfected HEK293T cells, probed with 10 µg/ml R217 or R218, then Alexafluor-546 anti-mouse IgG1; fluorescence microscopy
Conditions: one partner purified

B1: R217 IgG (antibody, V domains shown)
VH: VQLQQSGPELVKPGTSVKISCKTSGYTFTENTMHWVKQSHGESLDWVGGINTDNGGTTYSQKFKGKATLTVDKSSSTAYMELRSLTSEDSAVYYCSTGYDAMDYWGQGTSVTVSS
VL: NIVLTQSPASLAVSLGQRATISCRASKGVDSYGNSFMHWYQQRPGQPPKLLIYLASHLESGVPARFSGSGSRTDFTLTIDPVEADDAATYYCQQNNEDPFTFGSGTKLEIK
notes: mouse IgG1 heavy chain; its Fab part as the heavy chain of m3 (deposited structure); as the light chain of m3; IgG1 mouse monoclonal antibody; also called R217 antibody
binding result: binds

B2: R218 IgG (antibody, V domains shown)
VH: EVQLQQSGAELVKPGASVKLSCTASGFNIKDNYMHWVKQRPEQGLEWIGRIDPANGNTKYDPKFQGKATITADTSSNTAYLQLSSLTSEDTAVYYCARHYDGYFLYYFEYWGQGTTLTVSS
VL: DIQMTQTTSSLSASLGDRVTITCRAGQDISNYLNWYQQKPDGTVKLLIYYTSRLHSGVPSRFSGSGSGTDYSLTISNLEQEDIATYFCQQGSTFPWTFGGGTKLEIK
notes: mouse IgG1 heavy chain; its Fab part as the heavy chain of m5 (deposited structure); as the light chain of m5; IgG1 mouse monoclonal antibody; also called R218 antibody
binding result: binds
